Measurements from patent US20160137728A1 (ROCHE DIAGNOSTICS OPERATIONS, published 2016).
Ends that are not written are not given here.

T1: Thermus thermophilus wild type SlyD polypeptide (Thermus thermophilus)
T1 construct: Used as negative control; also called wild-type Thermus thermophilus SlyD; Thermus thermophilus-SlyD
T1 chain: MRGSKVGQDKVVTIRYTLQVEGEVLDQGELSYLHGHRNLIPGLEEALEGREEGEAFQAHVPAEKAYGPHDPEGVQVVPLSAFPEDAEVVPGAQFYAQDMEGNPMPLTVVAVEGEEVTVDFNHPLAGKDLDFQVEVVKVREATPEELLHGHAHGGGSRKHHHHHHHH

T2: SEQ ID NO 44 (human, also: covalently linked to cellulose)
T2 construct: Spot on the CelluSpots peptide array; also called Y-F-G-N-K-P-T-G-Y-G-S-S-S-R-R
T2 peptide: YFGNKPTGYGSSSRR

T3: SEQ ID NO 43 (human, also: covalently linked to cellulose)
T3 construct: Spot on the CelluSpots peptide array; also called F-Y-F-G-N-K-P-T-G-Y-G-S-S-S-R
T3 peptide: FYFGNKPTGYGSSSR

T4: SEQ ID NO 47 (human, also: covalently linked to cellulose)
T4 construct: Spot on the CelluSpots peptide array; also called N-K-P-T-G-Y-G-S-S-S-R-R-A-P-Q
T4 peptide: NKPTGYGSSSRRAPQ

T5: SEQ ID NO 48 (human, also: covalently linked to cellulose)
T5 construct: Spot on the CelluSpots peptide array; also called K-P-T-G-Y-G-S-S-S-R-R-A-P-Q-T
T5 peptide: KPTGYGSSSRRAPQT

T6: SEQ ID NO 45 (human, also: covalently linked to cellulose)
T6 construct: Spot on the CelluSpots peptide array; also called F-G-N-K-P-T-G-Y-G-S-S-S-R-R-A
T6 peptide: FGNKPTGYGSSSRRA

T7: SEQ ID NO 46 (human, also: covalently linked to cellulose)
T7 construct: Spot on the CelluSpots peptide array; also called G-N-K-P-T-G-Y-G-S-S-S-R-R-A-P
T7 peptide: GNKPTGYGSSSRRAP

T8: SEQ ID NO 49 (human, also: covalently linked to cellulose)
T8 construct: Spot on the CelluSpots peptide array; also called P-T-G-Y-G-S-S-S-R-R-A-P-Q-T-G
T8 peptide: PTGYGSSSRRAPQTG

T9: SEQ ID NO 50 (human, also: covalently linked to cellulose)
T9 construct: Spot on the CelluSpots peptide array; also called T-G-Y-G-S-S-S-R-R-A-P-Q-T-G-G
T9 peptide: TGYGSSSRRAPQTGG

T10: Thermococcus gammatolerans SlyD-IGF-2(53-65) fusion polypeptide
T10 construct: Human IGF-2 amino acids 53-65 inserted into the Thermococcus gammatolerans SlyD scaffold, with GS spacer and hexahistidine tag; also called Thermococcus gammadurans SlyD-IGF-2 (53-65)
T10 chain: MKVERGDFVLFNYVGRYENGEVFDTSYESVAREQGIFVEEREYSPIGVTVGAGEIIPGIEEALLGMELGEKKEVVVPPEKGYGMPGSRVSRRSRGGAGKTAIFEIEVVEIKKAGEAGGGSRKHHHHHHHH

T11: Thermococcus gammatolerans wild-type SlyD polypeptide (Thermococcus gammatolerans)
T11 construct: also called wild-type Thermococcus gammadurans SlyD; native SlyD from Thermococcus gammatolerans
T11 chain: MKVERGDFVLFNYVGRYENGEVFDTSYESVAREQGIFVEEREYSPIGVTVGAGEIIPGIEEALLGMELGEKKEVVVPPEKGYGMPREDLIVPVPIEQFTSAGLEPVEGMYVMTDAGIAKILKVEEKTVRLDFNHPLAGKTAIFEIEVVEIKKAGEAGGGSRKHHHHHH

B1: MAb<h-IGF-1>M-11.11.17 (antibody, V domains shown)
VH: QVQLQQSGAELVRPGSSVKISCKASGYAFSNLWMNWVKQRPGQGLEWIGQIYPGDGDTNYYGDFKGKATLTADSSSSTAYMQLSRLTSEDSAVYFCARIGYYGMDYWGQGTSVTVSS
VL: DVVLTQTPLSLPVNIGDEASISCKSTKSLLSSDGLTYLDWYLQKPGQSPQVLIYLVSNRFSGVPDRFSGSGSGTDFTLKISRVEAEDLGVYYCFQSNYLPTFGAGTKLELK
notes: Mouse monoclonal IgG from a hybridoma, raised with Thermus thermophilus SlyD-IGF-1(74-90); also called MAb 11.11.17; mAb<IGF1>M-11.11.17
B2: MAb<h-IGF-1>M-10.07.09 (antibody, V domains shown)
VH: QVQLQQSGAELVRPGSSVKISCKASGYAFSSYWMNWVKQRPGQGLEWIGQIYPGDGDTNHNGKFKGKATLTADKSSSTVYMQLSSLTSEDSAVYFCARSGDYYGKDYWGQGTTLTVSS
VL: DIVLTQTPPSLPVNMGQKATISYKATKSLLNTDGYTYMHWNQQKPGQPPKLLIYLVSNRESGVPDRFSGSGSGTDFTLNINTVEEEDAATYYCHHSNELPHTFGAGTKLEIK
notes: Mouse monoclonal antibody from a hybridoma, raised with Thermus thermophilus SlyD-IGF-1(74-90); In SPR it was captured from clone culture supernatant through anti-mouse IgG Fc; also called MAb 10.07.09; M-10.7.9

Key:
[1] = molecular target: T1, Thermus thermophilus wild type SlyD …; assay: ELISA, clone culture supernatant
[2] = molecular target: T12, human insulin-like growth factor-1 (mature, recombinant native IGF-1, Peprotech Cat.#100-11) (human, UniProt P05019 49-118); assay: ELISA, clone culture supernatant
T12 construct: In SPR it was the analyte in solution; also called native recombinant IGF-1; human IGF-1

[3] = molecular target: T2, SEQ ID NO 44; assay: CelluSpots peptide array, chemiluminescence
Description: (§1) Each peptide synthesized was shifted by one amino acid, i.e. it had 14 amino acids overlap with the previous and the following peptide, respectively. For preparation of the peptide arrays the Intavis CelluSpots™ technology was employed. In this approach, peptides are synthesized with an automated synthesizer (Intavis MultiPep RS) on modified cellulose disks which are dissolved after synthesis. The solutions of individual peptides covalently linked to macromolecular cellulose are then spotted onto coated microscope slides. The CelluSpots™ synthesis was carried out stepwise utilizing 9-fluorenylmethoxycarbonyl (Fmoc) chemistry on amino-modified cellulose disks in a 384-well synthesis plate. In each coupling cycle, the corresponding amino acids were activated with a solution of DIC/HOBt in DMF. Between coupling steps un-reacted amino groups were capped with a mixture of acetic anhydride, diisopropylethyl amine and 1-hydroxybenzotriazole. Upon completion of the synthesis, the cellulose disks were transferred to a 96-well plate and treated with a mixture of trifluoroacetic acid (TFA), dichloromethane, triisoproylsilane (TIS) and water for side chain deprotection. After removal of the cleavage solution, the cellulose bound peptides are dissolved with a mixture of TFA, TFMSA, TIS and water, precipitated with diisopropyl ether and re-suspended in DMSO. The peptide solutions were subsequently spotted onto Intavis CelluSpots™ slides using an Intavis slide spotting robot.
(§2) For epitope analysis, the slides prepared as described above were washed with ethanol and then with Tris-buffered saline (TBS; 50 mM Tris, 137 mM NaCl, 2.7 mM KCl, pH 8) before blocking for 16 h at 4° C. with 5 mL 10× Western Blocking Reagent (Roche Applied Science), 2.5 g sucrose in TBS, 0.1% Tween 20. The slide was washed with TBS and 0.1% Tween 20 and incubated afterward with 1 µg/mL of the corresponding IGF1 antibodies in TBS and 0.1% Tween 20 at ambient temperature for 2 h and subsequently washed with TBS+0.1% Tween 20. For detection, the slide was incubated with anti-rabbit/anti-mouse secondary HRP-antibody (1:20000 in TBS-T) followed by incubation with chemiluminescence substrate luminol and visualized with a Lumilmager (Roche Applied Science). ELISA-positive SPOTs were quantified and through assignment of the corresponding peptide sequences the antibody binding epitopes were identified.

[4] = molecular target: T3, SEQ ID NO 43; assay: CelluSpots peptide array, chemiluminescence
Description: as §1, §2

[5] = molecular target: T4, SEQ ID NO 47; assay: CelluSpots peptide array, chemiluminescence
Description: as §1, §2

[6] = molecular target: T5, SEQ ID NO 48; assay: CelluSpots peptide array, chemiluminescence
Description: as §1, §2

[7] = molecular target: T6, SEQ ID NO 45; assay: CelluSpots peptide array, chemiluminescence
Description: as §1, §2

[8] = molecular target: T7, SEQ ID NO 46; assay: CelluSpots peptide array, chemiluminescence
Description: as §1, §2

[9] = molecular target: T8, SEQ ID NO 49; assay: CelluSpots peptide array, chemiluminescence
Description: as §1, §2

[10] = molecular target: T9, SEQ ID NO 50; assay: CelluSpots peptide array, chemiluminescence
Description: as §1, §2

[11] = molecular target: T13, recombinant native IGF-2 (Peprotech Inc. Cat.#100-12) (human, UniProt P01344 25-91); assay: SPR (BIAcore T200), 25 C, antibody captured, antigen in solution
T13 construct: The sentence on the bought protein names no species; also called insulin-like growth factor-2
Description: (§3) The BIAcore T200 System was driven under the control software V1.1.1. Polyclonal rabbit IgG antibody <IgGFCγM>R (Jackson ImmunoResearch Laboratories Inc.) was immobilized at 30 μg/ml in 10 mM sodium acetate buffer (pH 4.5) at 6500 RU on the flow cells 1, 2, 3, and 4, respectively, via EDC/NHS chemistry according to the manufacturer's instructions. Finally, the sensor surface was blocked with a 1 M ethanolamine solution. The complete experiment was performed at 25° C.
(§4) The clone culture supernatants containing the respective antibodies at approx. 40 nM were captured for 2 min at a flow rate of 5 μl/min on the <IgGFCγM>R surface. As analytes in solution the recombinant native IGF-1 (Peprotech Inc. Cat.#100-11), recombinant native IGF-2 (Peprotech Inc. Cat.#100-12), Thermus thermophilus SlyD-IGF-1(74-90), recombinant wild-type Thermus thermophilus SlyD, recombinant Thermus thermophilus SlyD-ΔIF, recombinant wild-type Thermococcus gammadurans SlyD, recombinant Thermococcus gammadurans SlyD-IGF-2 (53-65) fusion polypeptides were used. Thermus thermophilus SlyD-ΔIF is solely the FKBP domain of Thermus thermophilus SlyD lacking the IF domain. Thermococcus gammadurans SlyD-IGF-2(53-65) was used to counterscreen and investigate the specificity for the IGF-1 hairpin in contrast to the IGF-2 hairpin insertion. The respective analytes were injected at different concentration steps from 90 nM, 30 nM, 10 nM, 3.3 nM, 1.1 nM and 0 nM. The association phase was monitored for 3 min. at a flow rate of 100 μl/min. The dissociation was monitored for 10 min. at a flow rate of 100 μl/min. The system was regenerated using a 10 mM glycine buffer (pH 1.7). Kinetics were evaluated using the BIAcore Evaluation Software.

[12] = molecular target: T10, Thermococcus gammatolerans …; assay: as above
Description: as §3, §4

[13] = molecular target: T1, Thermus thermophilus wild type SlyD …; assay: as above
Description: as §3, §4

[14] = molecular target: T11, Thermococcus gammatolerans wild-type …; assay: as above
Description: as §3, §4

[15] = molecular target: T12, human insulin-like growth factor-1 …; assay: as above
Description: as §3, §4

Row | Binder | reactivity [mE] [1] | reactivity [mE] [2] | binding result [3] | binding result [4] | binding result [5] | binding result [6] | binding result [7] | binding result [8] | binding result [9] | binding result [10] | binding result [11] | binding result [12] | binding result [13] | binding result [14] | Kd [15] | koff [15] | kon [15] | t1/2-diss [15]
1 | B1 | 32 mE | 2430 mE | binds | binds | binds | binds | binds | binds | binds | binds | no binding (tested: 90 nM) | no binding (tested: 90 nM) | no binding (tested: 90 nM) | no binding (tested: 90 nM) | 0.01 nM | 2.1e-05 s⁻¹ | 2e+06 M⁻¹ s⁻¹ | 9.33 h
2 | B2 | – | 2110 mE | – | – | – | – | – | – | – | – | – | – | – | – | 1.6 nM | 0.0015 s⁻¹ | 920000 M⁻¹ s⁻¹ | 0.133 h
